{"source": "paper PMC5071832", "about": "“Molecular basis for catalysis and substrate-mediated cellular stabilization of human tryptophan 2,3-dioxygenase” (Scientific Reports, 2016)", "proteins": {"B1": {"name": "human tryptophan 2,3-dioxygenase (enzyme)", "chain": "LPVEGSEEDKSQTGVNRASKGGLIYGNYLHLEKVLNAQELQSETKGNKIHDEHLFIITHQAYELWFKQILWELDSVREIFQNGHVRDERNMLKVVSRMHRVSVILKLLVQQFSILETMTALDFNDFREYLSPASGFQSLQFRLLENKIGVLQNMRVPYNRRHYRDNFKGEENELLLKSEQEKTLLELVEAWLERTPGLEPHGFNFWGKLEKNITRGLEEEFIRIQAKEESEEKEEQVAEFQKQKEVLLSLFDEKRHEHLLSKGERRLSYRALQGALMIYFYREEPRFQVPFQLLTSLMDIDSLMTKWRYNHVCMVHRMLGSKAGTGGSSGYHYLRSTVSDRYKVFVDLFNLSTYLIPRHWIPKMNPTIHKFL", "notes": "tryptophan 2,3-dioxygenase, human; Heme protein, crystallized in the ferrous state with L-Trp (and O2 or NFK); The construct lacks the N-terminal residues up to at least K17, and K37 lies in a disordered region; also called hTDO; TDO; source: recombinant, purified; oxidized with potassium ferricyanide, G25 column"}}, "biological_target": "the molecule itself", "test": "crystal structure; ferrous hTDO (45 mg/ml) with 10 mM L-Trp, under-oil microbatch, anaerobic, 18 °C; precipitant 50 mM sodium citrate pH 5.6, 5% PEG 3350, 2% Tacsimate pH 5; one crystal mounted anaerobically, one soaked overnight in O2-saturated solution; four subunits (A-D) form the tetramer"}
{"protein": "B1", "values": [{"measurement": "stoichiometry N", "result": 4}]}
